Reference: patent US20230183753A1, “Methods of in Vitro Cell Delivery” (Intellia Therapeutics, Inc., priority 2020, published 2023)
Oligonucleotides are written 5' to 3', each unit as a sugar letter and its base; * is a phosphorothioate linkage, no mark a phosphodiester; rarer units and linkages stand in square brackets, end groups in braces. Plain capitals give the bases only. m = 2'-O-methyl; r = 2'-OH (RNA)

Tests used:
B2M, CD3, MHC II = test: Flow cytometry of antigen negative T cells (B2M, CD3, MHC II) after BC22n or Cas9 editing, Example 16A; type: cell-based, human
Text: Cells were subsequently washed, processed on a Cytoflex instrument (Beckman Coulter) and analyzed using the FlowJo software package. T cells were gated based on size, shape, viability, and antigen expression.

[1] = tested on: B2M, TRAC, TRBC1/2, CIITA; test: NGS editing profile of T cells with BC22n or Cas9 mRNA, single or four guides, LNP titration, Example 16A; type: cell-based, human; settings: LNP;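 further: activated T cells exposed to LNPs 72 h after activation, kept at 37 °C, harvested on day 10 post activation, editing measured by NGS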
Experimental: Cells were expanded in T cell basal media for 72 hours prior to LNP transfection.
LNPs were mixed to fixed total mRNA weight ratios of 6:3:2 for editor mRNA, guide RNA, and UGI mRNA respectively as described in Table 12. […] LNP mixtures were incubated for 5 minutes at 37° C. in T cell basal media substituting 6% cynomolgus monkey serum (Bioreclamation IVT, Cat. CYN220760) for fetal bovine serum.
T cells were incubated at 37° C. with 5% CO2 for the duration of the experiment.
In total, T cells were exposed to 6 different LNPs simultaneously (editor mRNA, UGI mRNA, 4 guides).

[2] = multiple guide delivery (four guides simultaneously), locus of the guide assayed, editor BC22n, total RNA 8.6 ng
[3] = multiple guide delivery (four guides simultaneously), locus of the guide assayed, editor BC22n, total RNA 17.2 ng
[4] = multiple guide delivery (four guides simultaneously), locus of the guide assayed, editor BC22n, total RNA 34.4 ng
[5] = multiple guide delivery (four guides simultaneously), locus of the guide assayed, editor BC22n, total RNA 68.8 ng
[6] = multiple guide delivery (four guides simultaneously), locus of the guide assayed, editor BC22n, total RNA 137.5 ng
[7] = multiple guide delivery (four guides simultaneously), locus of the guide assayed, editor BC22n, total RNA 275.0 ng
[8] = multiple guide delivery (four guides simultaneously), locus of the guide assayed, editor BC22n, total RNA 550.0 ng
[9] = multiple guide delivery (four guides simultaneously), locus of the guide assayed, editor Cas9, total RNA 8.6 ng
[10] = multiple guide delivery (four guides simultaneously), locus of the guide assayed, editor Cas9, total RNA 17.2 ng
[11] = multiple guide delivery (four guides simultaneously), locus of the guide assayed, editor Cas9, total RNA 34.4 ng
[12] = multiple guide delivery (four guides simultaneously), locus of the guide assayed, editor Cas9, total RNA 68.8 ng
[13] = multiple guide delivery (four guides simultaneously), locus of the guide assayed, editor Cas9, total RNA 137.5 ng
[14] = multiple guide delivery (four guides simultaneously), locus of the guide assayed, editor Cas9, total RNA 275.0 ng
[15] = multiple guide delivery (four guides simultaneously), locus of the guide assayed, editor Cas9, total RNA 550.0 ng
[16] = single guide delivery, editor BC22n, total RNA 8.6 ng
[17] = single guide delivery, editor BC22n, total RNA 17.2 ng
[18] = single guide delivery, editor BC22n, total RNA 34.4 ng
[19] = single guide delivery, editor BC22n, total RNA 68.8 ng
[20] = single guide delivery, editor BC22n, total RNA 137.5 ng
[21] = single guide delivery, editor BC22n, total RNA 275.0 ng
[22] = single guide delivery, editor BC22n, total RNA 550.0 ng
[23] = single guide delivery, editor Cas9, total RNA 8.6 ng
[24] = single guide delivery, editor Cas9, total RNA 17.2 ng
[25] = single guide delivery, editor Cas9, total RNA 34.4 ng
[26] = single guide delivery, editor Cas9, total RNA 68.8 ng
[27] = single guide delivery, editor Cas9, total RNA 137.5 ng
[28] = single guide delivery, editor Cas9, total RNA 275.0 ng

B1: G016206: guide targeting TRBC1/2 (SEQ ID NO: 713) (nucleic acid)
guide: mC*mG*mC*rUrGrUrCrArArGrUrCrCrArGrUrUrCrUrArGrUrUrUrUrArGrAmGmCmUmAmGmAmAmAmUmAmGmCrArArGrUrUrArArArArUrArArGrGrCrUrArGrUrCrCrGrUrUrArUrCrAmAmCmUmUmGmAmAmAmAmAmGmUmGmGmCmAmCmCmGmAmGmUmCmGmGmUmGmCmU*mU*mU*mU
- percent cells negative for antigen, CD3 neg, Mean % (B2M, CD3, MHC II; editor BC22n, total RNA 8.6 ng): 32.6%
- percent cells negative for antigen, CD3 neg, Mean % (B2M, CD3, MHC II; editor BC22n, total RNA 17.2 ng): 53.4%
- percent cells negative for antigen, CD3 neg, Mean % (B2M, CD3, MHC II; editor BC22n, total RNA 34.4 ng): 71.9%
- percent cells negative for antigen, CD3 neg, Mean % (B2M, CD3, MHC II; editor BC22n, total RNA 68.8 ng): 82.9%
- percent cells negative for antigen, CD3 neg, Mean % (B2M, CD3, MHC II; editor BC22n, total RNA 137.5 ng): 90.4%
- percent cells negative for antigen, CD3 neg, Mean % (B2M, CD3, MHC II; editor BC22n, total RNA 275.0 ng): 96.0%
- percent cells negative for antigen, CD3 neg, Mean % (B2M, CD3, MHC II; editor BC22n, total RNA 550.0 ng): 97.9%
- percent cells negative for antigen, CD3 neg, Mean % (B2M, CD3, MHC II; editor Cas9, total RNA 8.6 ng): 7.9%
- percent cells negative for antigen, CD3 neg, Mean % (B2M, CD3, MHC II; editor Cas9, total RNA 17.2 ng): 16.1%
- percent cells negative for antigen, CD3 neg, Mean % (B2M, CD3, MHC II; editor Cas9, total RNA 34.4 ng): 27.0%
- percent cells negative for antigen, CD3 neg, Mean % (B2M, CD3, MHC II; editor Cas9, total RNA 68.8 ng): 40.6%
- percent cells negative for antigen, CD3 neg, Mean % (B2M, CD3, MHC II; editor Cas9, total RNA 137.5 ng): 59.4%
- percent cells negative for antigen, CD3 neg, Mean % (B2M, CD3, MHC II; editor Cas9, total RNA 275.0 ng): 77.3%
- percent cells negative for antigen, CD3 neg, Mean % (B2M, CD3, MHC II; editor Cas9, total RNA 550.0 ng): 86.6%
- C-to-A/G % mean [1, 2]: 2.6%
- C-to-T % mean [1, 2]: 11.6%
- Indel % mean [1, 2]: 2.8%
- C-to-A/G % mean [1, 3]: 3.6%
- C-to-T % mean [1, 3]: 23.4%
- Indel % mean [1, 3]: 2.6%
- C-to-A/G % mean [1, 4]: 3.7%
- C-to-T % mean [1, 4]: 38.5%
- Indel % mean [1, 4]: 2.9%
- C-to-A/G % mean [1, 5]: 2.3%
- C-to-T % mean [1, 5]: 55.6%
- Indel % mean [1, 5]: 2.4%
- C-to-A/G % mean [1, 6]: 1.8%
- C-to-T % mean [1, 6]: 72.4%
- Indel % mean [1, 6]: 1.7%
- C-to-A/G % mean [1, 7]: 1.9%
- C-to-T % mean [1, 7]: 85.1%
- Indel % mean [1, 7]: 1.7%
- C-to-A/G % mean [1, 8]: 2.2%
- C-to-T % mean [1, 8]: 89.8%
- Indel % mean [1, 8]: 0.9%
- C-to-A/G % mean [1, 9]: 0.7%
- C-to-T % mean [1, 9]: 0.2%
- Indel % mean [1, 9]: 2.3%
- C-to-A/G % mean [1, 10]: 0.7%
- C-to-T % mean [1, 10]: 0.3%
- Indel % mean [1, 10]: 4.2%
- C-to-A/G % mean [1, 11]: 0.5%
- C-to-T % mean [1, 11]: 0.1%
- Indel % mean [1, 11]: 6.6%
- C-to-A/G % mean [1, 12]: 0.5%
- C-to-T % mean [1, 12]: 0.4%
- Indel % mean [1, 12]: 12.3%
- C-to-A/G % mean [1, 13]: 0.5%
- C-to-T % mean [1, 13]: 0.2%
- Indel % mean [1, 13]: 17.8%
- C-to-A/G % mean [1, 14]: 0.5%
- C-to-T % mean [1, 14]: 0.1%
- Indel % mean [1, 14]: 33.0%
- C-to-A/G % mean [1, 15]: 0.3%
- C-to-T % mean [1, 15]: 0.3%
- Indel % mean [1, 15]: 43.3%
- C-to-A/G % mean [1, 16]: 6.1%
- C-to-T % mean [1, 16]: 23.7%
- Indel % mean [1, 16]: 6.1%
- C-to-A/G % mean [1, 17]: 6.8%
- C-to-T % mean [1, 17]: 42.4%
- Indel % mean [1, 17]: 6.8%
- C-to-A/G % mean [1, 18]: 5.7%
- C-to-T % mean [1, 18]: 60.1%
- Indel % mean [1, 18]: 5.9%
- C-to-A/G % mean [1, 19]: 4.3%
- C-to-T % mean [1, 19]: 73.2%
- Indel % mean [1, 19]: 4.7%
- C-to-A/G % mean [1, 20]: 3.6%
- C-to-T % mean [1, 20]: 81.7%
- Indel % mean [1, 20]: 3.7%
- C-to-A/G % mean [1, 21]: 2.3%
- C-to-T % mean [1, 21]: 91.0%
- Indel % mean [1, 21]: 2.8%
- C-to-A/G % mean [1, 22]: 2.0%
- C-to-T % mean [1, 22]: 93.6%
- Indel % mean [1, 22]: 1.7%
- C-to-A/G % mean [1, 23]: 0.5%
- C-to-T % mean [1, 23]: 0.3%
- Indel % mean [1, 23]: 8.1%
- C-to-A/G % mean [1, 24]: 0.7%
- C-to-T % mean [1, 24]: 0.3%
- Indel % mean [1, 24]: 14.9%
- C-to-A/G % mean [1, 25]: 0.8%
- C-to-T % mean [1, 25]: 0.2%
- Indel % mean [1, 25]: 24.1%
- C-to-A/G % mean [1, 26]: 0.4%
- C-to-T % mean [1, 26]: 0.2%
- Indel % mean [1, 26]: 35.9%
- C-to-A/G % mean [1, 27]: 0.5%
- C-to-T % mean [1, 27]: 0.2%
- Indel % mean [1, 27]: 48.6%
- C-to-A/G % mean [1, 28]: 0.4%
- C-to-T % mean [1, 28]: 0.1%
- Indel % mean [1, 28]: 63.8%
